Changes are numbered by the printed parent chain. In names and notes the source's numbering stands. Like-named read-outs stand apart in the source and are kept apart here.
B1: rabbit TRPV5 with a C-terminal truncation (1-660) (domain or fragment)
chain: MGACPPKAKGPWAQLQKLLISWPVGEQDWEQYRDRVNMLQQERIRDSPLLQAAKENDLRLLKILLLNQSCDFQQRGAVGETALHVAALYDNLEAATLLMEAAPELAKEPALCEPFVGQTALHIAVMNQNLNLVRALLARGASVSARATGAAFRRSPHNLIYYGEHPLSFAACVGSEEIVRLLIEHGADIRAQDSLGNTVLHILILQPNKTFACQMYNLLLSYDEHSDHLQSLELVPNHQGLTPFKLAGVEGNTVMFQHLMQKRKHVQWTCGPLTSTLYDLTEIDSWGEELSFLELVVSSKKREARQILEQTPVKELVSFKWKKYGRPYFCVLASLYILYMICFTTCCIYRPLKLRDDNRTDPRDITILQQKLLQEAYVTHQDNIRLVGELVTVTGAVIILLLEIPDIFRVGASRYFGQTILGGPFHVIIITYASLVLLTMVMRLTNMNGEVVPLSFALVLGWCSVMYFARGFQMLGPFTIMIQKMIFGDLMRFCWLMAVVILGFASAFHITFQTEDPNNLGEFSDYPTALFSTFELFLTIIDGPANYSVDLPFMYCITYAAFAIIATLLMLNLFIAMMGDTHWRVAQERDELWRAQVVATTVMLERKMPRFLWPRSGICGYEYGLGDRWFLRVENHHDQNPLRVLRYVEAFKCSDKEDGQ
B2: rabbit TRPV5 full length channel (1-730) (natural protein)
chain: MGACPPKAKGPWAQLQKLLISWPVGEQDWEQYRDRVNMLQQERIRDSPLLQAAKENDLRLLKILLLNQSCDFQQRGAVGETALHVAALYDNLEAATLLMEAAPELAKEPALCEPFVGQTALHIAVMNQNLNLVRALLARGASVSARATGAAFRRSPHNLIYYGEHPLSFAACVGSEEIVRLLIEHGADIRAQDSLGNTVLHILILQPNKTFACQMYNLLLSYDEHSDHLQSLELVPNHQGLTPFKLAGVEGNTVMFQHLMQKRKHVQWTCGPLTSTLYDLTEIDSWGEELSFLELVVSSKKREARQILEQTPVKELVSFKWKKYGRPYFCVLASLYILYMICFTTCCIYRPLKLRDDNRTDPRDITILQQKLLQEAYVTHQDNIRLVGELVTVTGAVIILLLEIPDIFRVGASRYFGQTILGGPFHVIIITYASLVLLTMVMRLTNMNGEVVPLSFALVLGWCSVMYFARGFQMLGPFTIMIQKMIFGDLMRFCWLMAVVILGFASAFHITFQTEDPNNLGEFSDYPTALFSTFELFLTIIDGPANYSVDLPFMYCITYAAFAIIATLLMLNLFIAMMGDTHWRVAQERDELWRAQVVATTVMLERKMPRFLWPRSGICGYEYGLGDRWFLRVENHHDQNPLRVLRYVEAFKCSDKEDGQEQLSEKRPSTVESGMLSRASVAFQTPSLSRTTSQSSNSHRGWEILRRNTLGHLNLGLDLGEGDGEEVYHF
B3: full length TRPV5 with a W583A point mutation (natural protein)
chain: B2 chain with W583A

What was measured:
Assay in all cases: cryo-EM structure
cryo-EM structure [1] = target: the molecule itself
bovine calmodulin = bovine calmodulin (bovine, UniProt P62157 1-149)
cryo-EM structure [2] = target: the molecule itself; remark: listed apart in the source

| Binder | stoichiometry N (cryo-EM structure [1]) | binding result (bovine calmodulin) | stoichiometry N (cryo-EM structure [2]) |
| --- | --- | --- | --- |
| B1 | 4 | – | – |
| B2 | – | binds | 4 |
| B3 | 4 | – | – |
